These are literature values, as cited in patent US9914774B2, “Notch pathway inhibition” (Genentech, Inc., priority 2014, dated 2018).

Where two headings read alike, the source gives them in different places.

For data set [1] the following is noted: Phase 1a, patients with solid tumors.
For data set [2] the following is noted: first-in-human phase I, advanced solid tumors.

In the case of “59R5: anti-Notch antibody 59R5, described in U.S. Pat. No. 7,919,092”, in data set [1], the patients experienced diarrhea is on record as 58% and the “patients experiencing grade 3 or higher diarrhea” value is 14%.

B1: 52M51: anti-Notch1 antibody 52M51, described in U.S. Pat. No. 8,435,513 (antibody, chains of the INN, looked up, V domains shown)
VH: QVQLVQSGAEVKKPGASVKISCKVSGYTLRGYWIEWVRQAPGKGLEWIGQILPGTGRTNYNEKFKGRVTMTADTSTDTAYMELSSLRSEDTAVYYCARFDGNYGYYAMDYWGQGTTVTVSS
VL: QAVVTQEPSLTVSPGGTVTLTCRSSTGAVTTSNYANWFQQKPGQAPRTLIGGTNNRAPGVPARFSGSLLGGKAALTLSGAQPEDEAEYYCALWYSNHWVFGGGTKLTVL
Take B1: in data set [2], the patients experienced diarrhea is reported as 64%.
